Measurements from paper PMC9482650, “Quantitative fragmentomics allow affinity mapping of interactomes” (Nature Communications, 2022).

T1: ARHGAP21, Q5T5U3
T1 sequence (Q5T5U3 45-169, limits assumed, looked up): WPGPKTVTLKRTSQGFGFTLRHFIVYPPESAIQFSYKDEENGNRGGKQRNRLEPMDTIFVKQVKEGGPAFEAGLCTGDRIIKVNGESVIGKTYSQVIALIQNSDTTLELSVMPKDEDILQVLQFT

T2: DFNB31_2, Q9P202
T2 sequence (Q9P202 274-371, limits assumed, looked up): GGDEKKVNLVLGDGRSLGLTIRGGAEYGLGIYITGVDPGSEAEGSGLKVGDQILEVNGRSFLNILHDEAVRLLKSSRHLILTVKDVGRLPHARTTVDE

T3: DFNB31_3, Q9P202
T3 sequence (Q9P202 811-907, limits assumed, looked up): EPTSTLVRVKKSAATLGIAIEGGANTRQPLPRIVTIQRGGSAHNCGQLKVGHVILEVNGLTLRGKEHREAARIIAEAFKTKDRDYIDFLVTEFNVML

T4: DLG3_2, Q92796
T4 sequence (Q92796 221-321, limits assumed, looked up): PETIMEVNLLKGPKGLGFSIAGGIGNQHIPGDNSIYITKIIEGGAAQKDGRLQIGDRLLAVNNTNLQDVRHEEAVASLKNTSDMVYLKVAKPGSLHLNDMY

T5: GRIP1_4, Q9Y3R0
T5 sequence (Q9Y3R0 467-571, limits assumed, looked up): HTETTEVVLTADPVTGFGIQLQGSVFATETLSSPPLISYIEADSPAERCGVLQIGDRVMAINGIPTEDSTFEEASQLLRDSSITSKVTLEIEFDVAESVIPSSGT

T6: MPDZ_10, O75970
T6 sequence (O75970 1624-1722, limits assumed, looked up): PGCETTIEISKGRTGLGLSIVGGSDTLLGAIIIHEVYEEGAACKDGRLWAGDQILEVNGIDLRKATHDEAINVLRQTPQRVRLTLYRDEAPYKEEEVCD

T7: MPDZ_12, O75970
T7 sequence (O75970 1857-1958, limits assumed, looked up): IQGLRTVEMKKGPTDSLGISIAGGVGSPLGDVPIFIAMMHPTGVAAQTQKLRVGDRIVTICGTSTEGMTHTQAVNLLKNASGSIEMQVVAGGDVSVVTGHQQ

T8: MPDZ_5, O75970
T8 sequence (O75970 695-796, limits assumed, looked up): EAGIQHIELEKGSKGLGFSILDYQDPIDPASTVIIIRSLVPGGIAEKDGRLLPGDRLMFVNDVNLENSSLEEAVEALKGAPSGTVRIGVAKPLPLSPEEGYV

T9: MPP7, Q5T2T1
T9 sequence (Q5T2T1 134-230, limits assumed, looked up): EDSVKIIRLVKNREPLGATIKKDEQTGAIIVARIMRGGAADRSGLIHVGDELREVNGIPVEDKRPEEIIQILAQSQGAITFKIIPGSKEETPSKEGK

T10: PDZD2_2, O15018
T10 sequence (O15018 329-429, limits assumed, looked up): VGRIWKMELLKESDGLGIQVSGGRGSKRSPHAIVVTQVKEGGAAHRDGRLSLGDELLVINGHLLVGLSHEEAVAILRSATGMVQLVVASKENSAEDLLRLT

T11: PDZRN3_1, Q9UPQ7
T11 sequence (Q9UPQ7 244-349, limits assumed, looked up): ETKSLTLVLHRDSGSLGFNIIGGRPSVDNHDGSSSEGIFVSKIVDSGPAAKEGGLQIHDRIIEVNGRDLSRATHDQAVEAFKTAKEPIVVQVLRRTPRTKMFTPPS

T12: SNTA1, Q13424
T12 sequence (Q13424 82-180, limits assumed, looked up): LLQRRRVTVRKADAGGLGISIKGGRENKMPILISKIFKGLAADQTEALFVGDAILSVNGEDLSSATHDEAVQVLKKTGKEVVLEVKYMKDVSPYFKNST

T13: TX1BP3, O14907
T13 sequence (O14907 10-122, limits assumed, looked up): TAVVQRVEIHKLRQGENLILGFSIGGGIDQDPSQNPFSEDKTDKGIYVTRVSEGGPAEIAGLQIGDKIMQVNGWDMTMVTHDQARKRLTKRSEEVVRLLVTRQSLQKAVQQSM


target: T1, ARHGAP21, Q5T5U3; test: holdup assay; parameters: key: below the threshold = too weak to quantify, mostly under pKd 3.1 to 4; settings: plain residues with an end cap or a label only (N-terminal biotin on a linker: ado-ado)

| pKd | Binder |
| --- | --- |
| 3.86 | NTANRRTTPV [CACNG2, Q9Y698] |

target: T2, DFNB31_2, Q9P202; test: holdup assay; parameters: key: below the threshold = too weak to quantify, mostly under pKd 3.1 to 4; settings: plain residues with an end cap or a label only (N-terminal biotin on a linker: ado-ado)

| pKd | Binder |
| --- | --- |
| below the threshold | NTANRRTTPV [CACNG2, Q9Y698] |

target: T3, DFNB31_3, Q9P202; test: holdup assay; parameters: key: below the threshold = too weak to quantify, mostly under pKd 3.1 to 4; settings: plain residues with an end cap or a label only (N-terminal biotin on a linker: ado-ado)

| pKd | Binder |
| --- | --- |
| below the threshold | NTANRRTTPV [CACNG2, Q9Y698] |

target: T4, DLG3_2, Q92796; test: holdup assay; parameters: key: below the threshold = too weak to quantify, mostly under pKd 3.1 to 4; settings: plain residues with an end cap or a label only (N-terminal biotin on a linker: ado-ado)

| pKd | Binder |
| --- | --- |
| 4.44 | NTANRRTTPV [CACNG2, Q9Y698] |

target: FRMPD3, Q5JV73; test: holdup assay; parameters: key: below the threshold = too weak to quantify, mostly under pKd 3.1 to 4; settings: plain residues with an end cap or a label only (N-terminal biotin on a linker: ado-ado)
Sequence (Q5JV73 12-100): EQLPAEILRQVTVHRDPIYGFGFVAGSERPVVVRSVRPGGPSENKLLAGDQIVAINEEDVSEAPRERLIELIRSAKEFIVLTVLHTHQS

| pKd | Binder |
| --- | --- |
| below the threshold | NTANRRTTPV [CACNG2, Q9Y698] |

target: T5, GRIP1_4, Q9Y3R0; test: holdup assay; parameters: key: below the threshold = too weak to quantify, mostly under pKd 3.1 to 4; settings: plain residues with an end cap or a label only (N-terminal biotin on a linker: ado-ado)

| pKd | Binder |
| --- | --- |
| below the threshold | NTANRRTTPV [CACNG2, Q9Y698] |

target: GRIP2_6, Q9C0E4; test: holdup assay; parameters: key: below the threshold = too weak to quantify, mostly under pKd 3.1 to 4; settings: plain residues with an end cap or a label only (N-terminal biotin on a linker: ado-ado)
Sequence (Q9C0E4 648-740): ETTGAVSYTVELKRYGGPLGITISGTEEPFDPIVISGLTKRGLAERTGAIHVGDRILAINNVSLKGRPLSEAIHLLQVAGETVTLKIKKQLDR

| pKd | Binder |
| --- | --- |
| below the threshold | NTANRRTTPV [CACNG2, Q9Y698] |

target: HTRA1, Q92743; test: holdup assay; parameters: key: below the threshold = too weak to quantify, mostly under pKd 3.1 to 4; settings: plain residues with an end cap or a label only (N-terminal biotin on a linker: ado-ado)
Sequence (Q92743 360-477): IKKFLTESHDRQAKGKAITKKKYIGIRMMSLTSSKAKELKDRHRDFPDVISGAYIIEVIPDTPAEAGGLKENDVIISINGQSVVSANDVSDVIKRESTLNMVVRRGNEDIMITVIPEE

| pKd | Binder |
| --- | --- |
| below the threshold | NTANRRTTPV [CACNG2, Q9Y698] |

target: IL16_1, Q14005; test: holdup assay; parameters: key: below the threshold = too weak to quantify, mostly under pKd 3.1 to 4; settings: plain residues with an end cap or a label only (N-terminal biotin on a linker: ado-ado)
Sequence (Q14005 210-306): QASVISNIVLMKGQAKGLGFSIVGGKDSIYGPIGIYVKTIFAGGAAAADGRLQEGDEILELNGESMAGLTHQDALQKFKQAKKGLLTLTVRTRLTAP

| pKd | Binder |
| --- | --- |
| below the threshold | NTANRRTTPV [CACNG2, Q9Y698] |

target: Inadl_3, Q8NI35; test: holdup assay; parameters: key: below the threshold = too weak to quantify, mostly under pKd 3.1 to 4; settings: plain residues with an end cap or a label only (N-terminal biotin on a linker: ado-ado)
Sequence (Q8NI35 359-469): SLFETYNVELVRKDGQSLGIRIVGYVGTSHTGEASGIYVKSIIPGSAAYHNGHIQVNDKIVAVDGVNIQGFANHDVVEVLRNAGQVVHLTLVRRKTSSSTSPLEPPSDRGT

| pKd | Binder |
| --- | --- |
| below the threshold | NTANRRTTPV [CACNG2, Q9Y698] |

target: Inadl_4, Q8NI35; test: holdup assay; parameters: key: below the threshold = too weak to quantify, mostly under pKd 3.1 to 4; settings: plain residues with an end cap or a label only (N-terminal biotin on a linker: ado-ado)
Sequence (Q8NI35 547-651): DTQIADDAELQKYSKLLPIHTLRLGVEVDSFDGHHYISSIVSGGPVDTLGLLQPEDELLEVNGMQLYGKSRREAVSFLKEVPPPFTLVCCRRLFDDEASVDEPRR

| pKd | Binder |
| --- | --- |
| below the threshold | NTANRRTTPV [CACNG2, Q9Y698] |

target: LIMK2, P53671; test: holdup assay; parameters: key: below the threshold = too weak to quantify, mostly under pKd 3.1 to 4; settings: plain residues with an end cap or a label only (N-terminal biotin on a linker: ado-ado)
Sequence (P53671 143-248): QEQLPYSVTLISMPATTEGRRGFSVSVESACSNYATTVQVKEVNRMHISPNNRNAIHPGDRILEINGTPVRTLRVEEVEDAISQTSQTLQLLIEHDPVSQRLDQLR

| pKd | Binder |
| --- | --- |
| below the threshold | NTANRRTTPV [CACNG2, Q9Y698] |

target: MAGI2_2, Q86UL8; test: holdup assay; parameters: key: below the threshold = too weak to quantify, mostly under pKd 3.1 to 4; settings: plain residues with an end cap or a label only (N-terminal biotin on a linker: ado-ado)
Sequence (Q86UL8 410-522): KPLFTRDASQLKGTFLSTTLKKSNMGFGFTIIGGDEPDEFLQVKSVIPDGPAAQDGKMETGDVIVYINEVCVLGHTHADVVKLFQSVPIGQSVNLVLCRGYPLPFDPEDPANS

| pKd | Binder |
| --- | --- |
| 4.98 | NTANRRTTPV [CACNG2, Q9Y698] |

target: MAGI3_2, Q5TCQ9; test: holdup assay; parameters: key: below the threshold = too weak to quantify, mostly under pKd 3.1 to 4; settings: plain residues with an end cap or a label only (N-terminal biotin on a linker: ado-ado)
Sequence (Q5TCQ9 398-503): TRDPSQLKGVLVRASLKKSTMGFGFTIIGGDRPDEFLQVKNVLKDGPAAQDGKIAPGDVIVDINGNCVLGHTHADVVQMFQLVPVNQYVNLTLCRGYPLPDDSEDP

| pKd | Binder |
| --- | --- |
| 5.16 | NTANRRTTPV [CACNG2, Q9Y698] |

target: T6, MPDZ_10, O75970; test: holdup assay; parameters: key: below the threshold = too weak to quantify, mostly under pKd 3.1 to 4; settings: plain residues with an end cap or a label only (N-terminal biotin on a linker: ado-ado)

| pKd | Binder |
| --- | --- |
| 3.87 | NTANRRTTPV [CACNG2, Q9Y698] |

target: T7, MPDZ_12, O75970; test: holdup assay; parameters: key: below the threshold = too weak to quantify, mostly under pKd 3.1 to 4; settings: plain residues with an end cap or a label only (N-terminal biotin on a linker: ado-ado)

| pKd | Binder |
| --- | --- |
| below the threshold | NTANRRTTPV [CACNG2, Q9Y698] |

target: T8, MPDZ_5, O75970; test: holdup assay; parameters: key: below the threshold = too weak to quantify, mostly under pKd 3.1 to 4; settings: plain residues with an end cap or a label only (N-terminal biotin on a linker: ado-ado)

| pKd | Binder |
| --- | --- |
| below the threshold | NTANRRTTPV [CACNG2, Q9Y698] |

target: T9, MPP7, Q5T2T1; test: holdup assay; parameters: key: below the threshold = too weak to quantify, mostly under pKd 3.1 to 4; settings: plain residues with an end cap or a label only (N-terminal biotin on a linker: ado-ado)

| pKd | Binder |
| --- | --- |
| below the threshold | NTANRRTTPV [CACNG2, Q9Y698] |

target: PDLIM1, O00151; test: holdup assay; parameters: key: below the threshold = too weak to quantify, mostly under pKd 3.1 to 4; settings: plain residues with an end cap or a label only (N-terminal biotin on a linker: ado-ado)
Sequence (O00151 1-87): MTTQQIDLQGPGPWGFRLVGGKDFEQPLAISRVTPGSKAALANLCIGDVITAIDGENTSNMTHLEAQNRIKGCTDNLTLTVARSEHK

| pKd | Binder |
| --- | --- |
| below the threshold | NTANRRTTPV [CACNG2, Q9Y698] |

target: T10, PDZD2_2, O15018; test: holdup assay; parameters: key: below the threshold = too weak to quantify, mostly under pKd 3.1 to 4; settings: plain residues with an end cap or a label only (N-terminal biotin on a linker: ado-ado)

| pKd | Binder |
| --- | --- |
| 3.66 | NTANRRTTPV [CACNG2, Q9Y698] |

target: T11, PDZRN3_1, Q9UPQ7; test: holdup assay; parameters: key: below the threshold = too weak to quantify, mostly under pKd 3.1 to 4; settings: plain residues with an end cap or a label only (N-terminal biotin on a linker: ado-ado)

| pKd | Binder |
| --- | --- |
| 4.23 | NTANRRTTPV [CACNG2, Q9Y698] |

target: T12, SNTA1, Q13424; test: holdup assay; parameters: key: below the threshold = too weak to quantify, mostly under pKd 3.1 to 4; settings: plain residues with an end cap or a label only (N-terminal biotin on a linker: ado-ado)

| pKd | Binder |
| --- | --- |
| 4.1 | NTANRRTTPV [CACNG2, Q9Y698] |

target: TJP1_2, Q07157; test: holdup assay; parameters: key: below the threshold = too weak to quantify, mostly under pKd 3.1 to 4; settings: plain residues with an end cap or a label only (N-terminal biotin on a linker: ado-ado)
Sequence (Q07157 181-274): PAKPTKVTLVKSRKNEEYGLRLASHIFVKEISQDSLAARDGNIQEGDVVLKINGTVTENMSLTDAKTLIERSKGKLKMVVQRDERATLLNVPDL

| pKd | Binder |
| --- | --- |
| below the threshold | NTANRRTTPV [CACNG2, Q9Y698] |

target: T13, TX1BP3, O14907; test: holdup assay; parameters: key: below the threshold = too weak to quantify, mostly under pKd 3.1 to 4; settings: plain residues with an end cap or a label only (N-terminal biotin on a linker: ado-ado)

| pKd | Binder |
| --- | --- |
| 4.76 | NTANRRTTPV [CACNG2, Q9Y698] |
